Results published in paper PMC12314576, “The Actin‐Binding Prolyl‐Isomerase Par17 Sustains Its Substrate Selectivity by Interdomain Allostery” (Proteins, 2025).
Starred links: 1 amine or outer side, 2 acyl side, 3 side chain; linkers in the order of their positions; H or OH if unused. *: point of attachment. pNA = O=[N+]([O-])c1ccc(N*)cc1; Suc = O=C(CCC(=O)[*:2])[*:1]

Target: Parvulin 17 (human) (UniProt Q9Y237)
Test: NMR titration; substrate peptides added stepwise to 15N-labelled parvulin (300 μM, up to 3 mM peptide, 1:10); BEST-TROSY-HSQC at 20°C, 50 mM KPi buffer pH 6.7; microscopic (residue-specific) KD fitted with a 1:1 binding model

Sequence of Parvulin 17 (human) (Q9Y237 other isoform, or with tags, fused parts or gaps): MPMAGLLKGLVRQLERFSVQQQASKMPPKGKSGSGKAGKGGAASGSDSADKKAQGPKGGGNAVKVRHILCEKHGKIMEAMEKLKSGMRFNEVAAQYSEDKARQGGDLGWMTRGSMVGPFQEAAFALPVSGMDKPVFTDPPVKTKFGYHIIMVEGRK

B1: Suc-Ala-Arg-Pro-Phe-pNA (peptide)
peptide: Suc-ARPF-pNA
SMILES: C[C@H](NC(=O)CCC(=O)O)C(=O)N[C@@H](CCCNC(=N)N)C(=O)N1CCC[C@H]1C(=O)N[C@@H](Cc1ccccc1)C(=O)Nc1ccc([N+](=O)[O-])cc1
Binder B1 has a microscopic (residue-specific) KD, V116 of 17 mM.

B2: Suc-Ala-Lys-Pro-Phe-pNA (peptide)
peptide: Suc-AKPF-pNA
SMILES: C[C@H](NC(=O)CCC(=O)O)C(=O)N[C@@H](CCCCN)C(=O)N1CCC[C@H]1C(=O)N[C@@H](Cc1ccccc1)C(=O)Nc1ccc([N+](=O)[O-])cc1
B2 gave a microscopic (residue-specific) KD, V116 of 24 mM.
